Reference: patent publication US6475775B1, “PARG, a GTPase activating protein which interacts with PTPL1” (Ludwig Institute for Cancer Research, priority 1997, dated 2002)

B1: GST-GAP fusion protein: GAP domain, amino acid residues 658-898 of PARG, produced as a GST fusion protein in E. coli (protein)
chain: GHQKLPGKIHLFGAEFTLVAKKEPDGIPFILKICASEIENRALCLQGIYRVCGNKIKTEKLCLALENGMHLVDISEFSSHDICDVLKLYLRQLPEPFILFRLYKEFIDLAKEIQHVNEEQETKKNSLEDKKWPNMCIEINRILLKSKDLLRQLPASNFNSLHFLIVHLKRVVDHAEENKMNSKNLGVIFGPSLIRPRPQTAPITISSLAEYSNQARLVEFLITYSQKIFDGSLQPQDVMCS
modifications: left off: a dimerising Fc or GST
notes: GAP domain, amino acid residues 658-898 of PARG, produced as a GST fusion protein in E. coli

Legend:
GST-PDZ 4-5 of PTPL1 = target: T1, GST-PDZ 4-5 of PTPL1 (Homo sapiens, UniProt Q12923); assay: Binding of GST-PDZ fusion proteins to C-terminal PARG peptide; settings: peptide on Affigel 15 beads; 50 nM fusion protein; 4° C., 2 h; α-GST immunoblot
T1 construct: GST-PDZ 4-5, residues 1762-1960; made in house; host or cells: E. coli
T1 sequence (Q12923 1762-1960 isoform Q12923-3): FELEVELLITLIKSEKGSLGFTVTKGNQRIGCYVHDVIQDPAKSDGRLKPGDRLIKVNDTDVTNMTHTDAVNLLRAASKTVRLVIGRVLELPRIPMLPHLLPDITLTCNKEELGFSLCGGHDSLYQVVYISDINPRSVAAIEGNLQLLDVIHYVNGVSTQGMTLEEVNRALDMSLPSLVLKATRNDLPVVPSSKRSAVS
Excerpt: (§1) To identify proteins that bind to the PDZ domains of PTPL1, regions of PTPL1 cDNA corresponding to the various PDZ domains were produced by polymerase chain reaction and subcloned into the GST fusion protein expression vector pGEX1λT (Pharmacia): GST-PDZ 1. amino acid residues 1066-1166 of PTPL1; GST-PDZ 2-3. residues 1340-1579; GST-PDZ 3, residues 1469-1579; GST-PDZ 4, residues 1762-1864; GST-PDZ 4-5, residues 1762-1960 and GST-PDZ 5, residues 1856-1960 (FIG. 1A). Domains and motifs indicated in FIG. 1A are: L, leucine zipper motif; Band 4.1, a domain of 300 amino acid residues with homology to the Band 4.1 superfamily; P, PDZ domain; PTP, protein tyrosine phosphatase catalytic domain; GST, glutathione S-transferase. The different expression vector constructs were transformed into E. coli. Glutathione S-transferase (GST) fusion proteins were produced and purified as described by Ridley and Hall (Cell 70: 389-399, 1992) and then subjected to sodium dodecyl sulfate (SDS)-gel electrophoresis.
(§2) It has been shown that PDZ domains interact with the C-terminal ends of short peptides and that a valine residue at the absolute C-terminal end is important for binding (Kim et al., 1995; Komau et al., 1995; Saras et al., in preparation). […]

[1] = target: T2, PDZ 4 of PTPL1 (GST-PDZ 4) (Homo sapiens, UniProt Q12923); assay: as above; settings: peptide on Affigel 15 beads; 50 nM fusion protein; 4° C., 2 h; α-GST immunoblot
T2 construct: GST-PDZ 4, residues 1762-1864; made in house; host or cells: E. coli
T2 sequence (Q12923 1762-1864 isoform Q12923-3): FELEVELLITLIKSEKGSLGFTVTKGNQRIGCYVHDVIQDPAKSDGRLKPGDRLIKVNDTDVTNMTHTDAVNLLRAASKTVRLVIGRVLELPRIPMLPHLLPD
Excerpt: as §1, §2

Rac = target: T3, Rac (Homo sapiens, UniProt P63000); assay: GAP activity of PARG GAP domain (GTP hydrolysis, filter binding); assay type: biochemical; settings: Rac preloaded with γ-32P-GTP, 30° C.
T3 construct: GST (N, cleaved yes); made in house; host or cells: E. coli
Excerpt: (§3) In order to determine the GAP activity of PARG on proteins of the Rho family, the GAP domain of PARG was produced as a GST fusion protein in E. coli (FIG. 5A). Briefly, a DNA fragment coding for the GAP domain, i.e., amino acid residues 658-898, of PARG was produced by polymerase chain reaction and subcloned into pGEX1λT and referred to as GST-GAP. pGEX2T-based expression vectors containing RhoA, Rac1 and Cdc42 (G25K isoform) cDNAs were obtained from Dr. A. Hall (MRC Laboratory for Molecular Cell Biology and Department of Biochemistry, University College London, UK). These different expression vector constructs were transformed into E. coli. The GST fusion proteins were produced and purified essentially as described above in Example 1. Recombinant Rho, Rac and Cdc42 proteins were subjected to thrombin cleavage (Ridley and Hall, 1992).
(§4) Recombinant Rho, Rac and Cdc42 were preloaded with γ-^32P-GTP and incubated for various time periods in the presence of the GST-GAP fusion protein or, as control, GST protein. Thereafter, the radioactivity bound to the GTPase was determined as a measurement of the GTP hydrolysis activity. Briefly, 200 nM aliquots of recombinant Rho, Rac and Cdc42 were incubated at 30° C. with 10 μCi γ-^32P-GTP in 20 mM Tris-HCI, pH 7.5, 25 mM NaCl, 4 mM EDTA, 0.1 mM dithiothreitol, and the nucleotide exchange was stopped after 10 min by the addition of 17 mM MgCl2. Proteins (100 nM GST, 1 nM or 20 nM of GST-GAP fusion protein) were added to the reaction mixture and aliquots of 5 μl were withdrawn and collected on nitrocellulose filters (HA, Millipore, Bedford, Mass.) at 3 min intervals. The filters were washed with cold buffer (50 mM Tris-HCI pH 7.5, 50 mM NaCl, 5 mM MgCl2), dried and subjected to scintillation counting. The amount of protein-bound radioactivity is expressed as the percentage of the total input.

Rho = target: T4, Rho (Homo sapiens, UniProt P61586); assay: as above; assay type: biochemical; settings: 1 nM GST-GAP; Rho preloaded with γ-32P-GTP; 30° C.
T4 construct: GST (N, cleaved yes); made in house; host or cells: E. coli
Excerpt: as §3, §4

Cdc42 = target: T5, Cdc42 (Homo sapiens, UniProt P60953); assay: as above; assay type: biochemical; settings: Cdc42 preloaded with γ-32P-GTP, 30° C.
T5 construct: GST (N, cleaved yes); made in house; host or cells: E. coli
Excerpt: as §3, §4

T5 sequence (P60953 1-191 isoform P60953-1): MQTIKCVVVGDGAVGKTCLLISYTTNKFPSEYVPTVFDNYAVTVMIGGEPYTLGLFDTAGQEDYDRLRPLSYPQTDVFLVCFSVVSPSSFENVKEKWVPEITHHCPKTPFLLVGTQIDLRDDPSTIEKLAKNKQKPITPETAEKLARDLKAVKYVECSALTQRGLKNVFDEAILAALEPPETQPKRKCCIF
T4 sequence (P61586 whole entry): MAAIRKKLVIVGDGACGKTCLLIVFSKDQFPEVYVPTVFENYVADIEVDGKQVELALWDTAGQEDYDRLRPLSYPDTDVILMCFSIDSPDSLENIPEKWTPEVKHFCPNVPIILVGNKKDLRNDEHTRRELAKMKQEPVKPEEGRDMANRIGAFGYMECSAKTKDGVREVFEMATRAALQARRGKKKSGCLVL

Molecule | binding of GST-PDZ 4-5 to the peptide (GST-PDZ 4-5 of PTPL1) | binding of GST-PDZ 4 to the peptide [1] | GAP activity on Rac (Rac; 1 nM GST-GAP) | GAP activity on Rac (Rac; 20 nM GST-GAP) | GAP activity on Rho (Rho) | GAP activity on Cdc42 (Cdc42; 1 nM GST-GAP) | GAP activity on Cdc42 (Cdc42; 20 nM GST-GAP)
PQFV (listed as Homo sapiens) [synthetic peptide, last 4 C-terminal amino acid residues of PARG] | bound | bound | – | – | – | – | –
B1 | – | – | no GAP activity | active | strong GAP activity | no GAP activity | active
